Measurements taken from patent publication US8067187 (CROSSBETA BIOSCIENCES B V, dated 2011).

T1: human factor XII from plasma (Calbiochem) (human, UniProt P00748 20-615)
T1 construct: also called FXII
T1 sequence (looked up): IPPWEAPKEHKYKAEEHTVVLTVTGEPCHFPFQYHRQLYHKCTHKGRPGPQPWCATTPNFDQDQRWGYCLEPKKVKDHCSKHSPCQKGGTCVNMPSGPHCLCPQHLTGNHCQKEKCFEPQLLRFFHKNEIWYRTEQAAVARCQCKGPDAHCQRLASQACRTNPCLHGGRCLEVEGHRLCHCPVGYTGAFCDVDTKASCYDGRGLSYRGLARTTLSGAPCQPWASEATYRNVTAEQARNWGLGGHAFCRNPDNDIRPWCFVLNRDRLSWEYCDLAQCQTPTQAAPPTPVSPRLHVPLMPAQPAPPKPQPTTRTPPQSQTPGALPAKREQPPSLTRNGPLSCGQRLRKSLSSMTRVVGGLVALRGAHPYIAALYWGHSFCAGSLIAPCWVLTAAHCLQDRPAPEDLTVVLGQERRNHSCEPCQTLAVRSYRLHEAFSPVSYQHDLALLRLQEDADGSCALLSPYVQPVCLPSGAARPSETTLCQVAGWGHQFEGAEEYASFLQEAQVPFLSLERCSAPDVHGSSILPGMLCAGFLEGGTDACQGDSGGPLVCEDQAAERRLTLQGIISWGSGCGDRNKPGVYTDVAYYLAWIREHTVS

B1: recombinant human β2-glycoprotein I (other, UniProt P02749 20-345, looked up)
chain: GRTCPKPDDLPFSTVVPLKTFYEPGEEITYSCKPGYVSRGGMRKFICPLTGLWPINTLKCTPRVCPFAGILENGAVRYTTFEYPNTISFSCNTGFYLNGADSAKCTEEGKWSPELPVCAPIICPPPSIPTFATLRVYKPSAGNNSLYRDTAVFECLPQHAMFGNDTITCTTHGNWTKLPECREVKCPFPSRPDNGFVNYPAKPTLYYKDKATFGCHDGYSLDGPEEIECTKLGNWSAMPSCKASCKVPVKKATVVYQGERVKIQEKFKNGMLHGDKVSFFCKNKEKKCSYTEDAQCIDGTIEVPKCFKEHSSLAFWKTDASDVKPC
notes: also called recombinant β2GPI; rβ2GPI
B2: amyloid fibrin peptide FP13 K157G (peptide)
peptide: KRLEVDIDIGIRS
notes: Preparation with cross-β structure; also called amyloid FP13 K157G

Experiments:
[1] = target: T2, anti-β2GPI auto-antibodies purified from plasma of patients with the Anti-phospholipid syndrome; test: competition ELISA: patient anti-β2GPI auto-antibodies with a β2GPI series in solution on immobilized plasma β2GPI
T2 construct: Polyclonal mixture; also called patient antibodies
Experimental: C. […] Eluted fractions are analyzed on Western blot after SDS-PA electrophoresis. […] Anti-β₂GPI auto-antibodies were purified from plasma of patients with the autoimmune disease Anti-phospholipid syndrome.

[2] = target: T1, human factor XII from plasma …; test: ELISA, immobilized factor XII overlaid with a concentration series of β2GPI
[3] = target: T3, tissue-type plasminogen activator (tPA, Actilyse, Boehringer-Ingelheim) (human, UniProt P00750 36-562); test: ELISA, immobilized tPA overlaid with a concentration series of β2GPI
T3 construct: Commercial product; also called recombinant human tPA

[4] = target: T3, tissue-type plasminogen activator (tPA, …); test: tPA binding (data not shown)

T3 sequence (P00750 36-562 limits assumed): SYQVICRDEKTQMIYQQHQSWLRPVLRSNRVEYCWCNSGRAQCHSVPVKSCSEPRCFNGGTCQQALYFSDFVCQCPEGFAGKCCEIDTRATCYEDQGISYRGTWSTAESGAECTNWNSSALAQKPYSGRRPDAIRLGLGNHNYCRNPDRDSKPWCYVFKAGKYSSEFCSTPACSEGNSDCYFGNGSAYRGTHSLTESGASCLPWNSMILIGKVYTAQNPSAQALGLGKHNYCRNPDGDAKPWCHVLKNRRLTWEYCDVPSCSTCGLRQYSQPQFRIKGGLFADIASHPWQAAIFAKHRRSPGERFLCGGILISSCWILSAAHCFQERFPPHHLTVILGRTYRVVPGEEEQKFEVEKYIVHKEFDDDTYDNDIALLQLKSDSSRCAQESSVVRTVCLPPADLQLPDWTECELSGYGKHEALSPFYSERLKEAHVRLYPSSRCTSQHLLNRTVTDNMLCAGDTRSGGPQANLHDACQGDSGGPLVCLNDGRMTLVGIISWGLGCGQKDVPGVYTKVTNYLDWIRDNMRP

Binder | IC50 (read off the curve) [1] [µg/mL] | Kd [2] [nM] | Kd [3] [nM] | binding result [4]
B1 | ~5 | 20 | 51 | 
B2 |  |  |  | binds
